Test results as given in US10456465B2, “Compositions, kits, and methods for the diagnosis prognosis, monitoring, treatment and modulation of post-transplant lymphoproliferative disorders and hypoxia associated angiogenesis disorders using galectin-1” (Dana-Farber Cancer Institute, Inc., priority 2009, dated 2019).

B1: anti-Gal1 monoclonal antibody 8F4F8G7 (antibody, V domains shown)
VH: EVQLQQSVAEFVRPGASVRLSCTASGFNIKNTYIHWVRQRPEQGLEWIGKIDPANGNTKYVPEFQGKATMTADTSSNTVYLHLSSLTSEDTAIYYCVDGYYGWYFAVWGTGTTVTVSS
VL: QAVVTQESALTTSPGETVTLTCRSSTGAVTTSNYANWVQEKPDHLFTGLIGATNNRAPGVPARFSGSLIGDKAVLTITGAQTEDEAIYFCALWYRNHFIFGSGTKVTVL
notes: Murine hybridoma mAb (deposit PTA-10535), lambda light chain; also called 14-19 8F4-F8-G7; clone 8F4.8F.67

How the values were obtained:
[1] = target: T1, Gal1 (Homo sapiens, UniProt P09382); assay: Binding of 488-Gal1 to HUVEC
T1 construct: made in house
Method: (§1) For glycophenotyping, ECs were incubated with biotinylated L-PHA, LEL, SNA, MAL II, PNA and HPA (all from Vector). Recombinant Gal1 was purified as described in Ilarregui et al. (2009) Nat Immunol 10, 981-991. For binding assays, ECs were incubated for 1 h at 4° C. with dyLight 488-labeled galectins in the absence or presence of lactose, sucrose, anti-Gal1 or isotype control mAb or following transfection with GnT5, GCNT1 or scrambled siRNA. Cells were analyzed on a FACSAria (BD Biosciences). For segregation, ECs were treated with Gal1 for 1 h, fixed and incubated for 1 h with anti-human VEGFR2 antibody (55B11; Cell Signaling) as described in Ilarregui et al. (2009) Nat Immunol 10, 981-991. Cells were analyzed on a Nikon laser confocal microscope (Eclipse E800).
DyLight 488-conjugated Gal1 (488-Gal1) was obtained using DyLight labeling kit (Thermo Scientific). Inhibitors of Jak2-STAT3 (AG490; 5 μM), Jnk-SAP (SP600125; 20 μM), p38 (SB202190; 10 μM), HIF-1α (3 μM) and O-glycosylation (benzyl-α-Ga1NAc; 2 mM) were from Calbiochem. Inhibitors of Erk1/2 (U0126; 5 μM), PI(3)K-Akt (Ly294002; 2 μM) and NF-κB (BAY 11-7082; 1 μM), ROS (N-acetyl-cysteine; NAC), N-glycosylation (swainsonine; 3 μM), lactose or sucrose (30 mM) were from Sigma. PNGase F (25 U/μg protein) was from New England Biolabs. Recombinant cytokines including IL-10 (50 ng/ml), IL-17 (5 ng/ml), TGF-β1 (3 ng/ml), IFN-γ (50 ng/ml), VEGF (20 ng/ml), bFGF (10 ng/ml) were from R&D. TNF (20 ng/ml) was from Sigma. Biotinylated lectins, including L-PHA (2 μg/ml), LEL (1 μg/ml), SNA (5 μg/ml), MAL II (10 μg/ml), PNA (10 μg/ml) and HPA (10 μg/ml) were purchased from Vector Labs and incubated in buffer containing 150 mM NaCl, 10 mM HEPES and 1% BSA (Sigma). ON-TARGETplus SMART siRNA pools against GnT5, GCNT1, VEGFR2, NRP-1, VEGF, HIF-1α and scrambled were obtained from Dharmacon. Transfections were performed by Lipofectamine-RNAiMAX (Invitrogen) following manufacturer's directions. Recombinant Gal3 and Gal8 were purified as described in Acosta-Rodriguez et al. (2004) J Immunol 172, 493-502 and Cardenas Delgado et al. (2010) FASEB J [Epub ahead of print].

[2] = test system: HUVEC; assay: HUVEC proliferation ([3H]thymidine incorporation); format: cell-based, human
Method: (§2) HUVEC transfected or not with specific siRNA or pre-incubated with signaling pathway inhibitors were exposed to VEGF or Gal1 with or without lactose, sucrose, 8F4F8G7 mAb or control isotype (IgG1κ) or specific antibodies for VEGFR1 (AP-MAB0702; Abcam), VEGFR2 (AF357; R&D), VEGFR3 (AB89501; Abcam) or VEGF (MAB293; R&D). Cells were processed for proliferation, migration, invasion and tube formation assays. Tumor-associated blood vessels were identified by flow cytometry using Alexa Fluor 647-conjugated anti-CD34 antibody (RAM34; eBioscience).
For proliferation assays, HUVEC that were transfected or not with specific siRNA and cultured in complete M199 medium were trypsinized, harvested and seeded in 96-well microtiter plates (1×10^3 cells/well). Cells were pre-incubated for 1 hour at 37° C. with lactose, sucrose or signaling pathway inhibitors and then exposed to Gal1. After 24 hours, cells were incubated for an additional 24 hours in the presence of 0.8 μCi [^3H]-thymidine (NEN Dupont). Cells were then harvested and radioactivity was measured in a 1414 Liquid Scintillation Counter (Perkin Elmer).

[3] = test system: HUVEC; assay: HUVEC migration (transwell); format: cell-based, human
Method: as §2
(§3) The formation of capillary-like tubular structures was assessed in Matrigel-coated plates essentially as described in Albini et al. (2001), Cancer Res 61, 8171-8178. In brief, HUVEC (3×10^4 cells/ml) transfected or not with specific siRNA or pre-incubated with signaling pathway inhibitors were seeded on Matrigel with our without Gal1 (0.1 to 3 μM) or VEGF (20 ng/ml) with or without lactose, sucrose, 8F4F8G7 mAb (0.5 μM) or isotype control (IgG1K) or blocking antibodies specific for VEGFR1 (5 μg/ml), VEGFR2 (2 μg/ml), VEGFR3 (10 μg/ml) or VEGF (10 μg/ml). Cells were incubated at 37° C. for periods ranging from 0 to 24 h and were visualized by phase-contrast microscopy. In another set of experiments, conditioned medium from hypoxic or normoxic KS cells infected or not with a retroviral vector containing Gal1 shRNA was assessed on HUVEC transfected or not with GnT5, GCNT1 or scr siRNA (100 nM). Capillary-like tubular structures were scored by counting the number of tubules (closed areas) per well in a phase-contrast microscope (Nikon E-100). For migration assays, HUVEC (4×10^4/well) transfected or not with specific siRNA were resuspended in M199 medium supplemented with 1% FCS. Cells were placed into the top chamber of the insert while the bottom well was filled with Gal1 or VEGF in the absence or presence of lactose, sucrose, 8F4F8G7 mAb or isotype control. After 24 hours, inserts were stained with crystal violet (Sigma) and analyzed in an inverted microscope. For each filter, 4 images were collected and cells were counted with the ImageJ software v1.34 (NIH).

[4] = test system: HUVEC; assay: HUVEC capillary tube formation on Matrigel; format: cell-based, human
Method: as §2, §3

[5] = target: T2, Gal8 (Homo sapiens, UniProt O00214); assay: Binding of 488-Gal8 to HUVEC; conditions: 488-Gal8 20 μg/ml, mAb 0.5 μM
T2 construct: made in house
T2 sequence (O00214 1-317): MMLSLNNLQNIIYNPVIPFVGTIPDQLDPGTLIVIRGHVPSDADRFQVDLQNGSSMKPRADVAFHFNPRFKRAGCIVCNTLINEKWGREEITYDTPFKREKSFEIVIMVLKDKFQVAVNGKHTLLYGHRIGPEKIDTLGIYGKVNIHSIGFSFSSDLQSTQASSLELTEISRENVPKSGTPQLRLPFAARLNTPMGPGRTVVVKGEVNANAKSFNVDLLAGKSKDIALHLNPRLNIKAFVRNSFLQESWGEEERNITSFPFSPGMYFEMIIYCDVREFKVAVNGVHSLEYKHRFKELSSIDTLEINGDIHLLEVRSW
Method: as §1
DyLight 488-conjugated Gal1 (488-Gal1) was obtained using DyLight labeling kit (Thermo Scientific). Inhibitors of Jak2-STAT3 (AG490; 5 μM), Jnk-SAP (SP600125; 20 μM), p38 (SB202190; 10 μM), HIF-1α (3 μM) and O-glycosylation (benzyl-α-Ga1NAc; 2 mM) were from Calbiochem. Inhibitors of Erk1/2 (U0126; 5 μM), PI(3)K-Akt (Ly294002; 2 μM) and NF-κB (BAY 11-7082; 1 μM), ROS (N-acetyl-cysteine; NAC), N-glycosylation (swainsonine; 3 μM), lactose or sucrose (30 mM) were from Sigma. PNGase F (25 U/μg protein) was from New England Biolabs. […]

T1 sequence (P09382 whole entry): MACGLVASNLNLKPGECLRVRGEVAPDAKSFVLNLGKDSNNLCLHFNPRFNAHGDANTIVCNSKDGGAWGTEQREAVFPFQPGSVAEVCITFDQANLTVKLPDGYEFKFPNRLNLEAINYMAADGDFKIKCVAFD

| Molecule | binding of fluorescently-labeled Gal1 to ECs ([1]; flow cytometry) | EC proliferation ([2]; HUVEC treated with Gal1) | EC migration ([3]; HUVEC treated with Gal1) | formation of three-dimensional tubular networks ([4]; HUVEC treated with Gal1) | effect on binding of Gal1 to ECs ([1]; lactose/sucrose 30 mM, swainsonine 3 μM, benzyl-α-GalNAc 2 mM, mAb 0.5 μM) | effect on binding of Gal8 to the EC surface [5] | effect on Gal1-induced EC proliferation ([2]; induced by Gal1) | effect on Gal1-induced EC migration ([3]; induced by Gal1) | effect on EC migration in the absence of exogenous Gal1 ([3]; no exogenous Gal1) | effect on Gal1-induced capillary tube formation ([4]; induced by Gal1) | effect on tube formation in the absence of exogenous Gal1 ([4]; no exogenous Gal1) |
| --- | --- | --- | --- | --- | --- | --- | --- | --- | --- | --- | --- |
| rGal1: recombinant human galectin-1 | bound to ECs in a dose- and carbohydrate-dependent fashion | elicited | elicited | at levels similar to those attained by VEGF |  |  |  |  |  |  |  |
| B1 |  |  |  |  | prevented | did not interfere | prevent | prevent | did not alter | prevent | did not alter |
